Reference: publication doi:10.1101/2021.08.20.457142

B1: MKK6 D-site peptide / p38-alpha (MAPK14) L195A, full length (parent complex)
chain 1: SQSKGKKRNPGLKIPKEAFEQP
chain 2: MSQERPTFYRQELNKTVWEVPERYQNLSPVGSGAYGSVCAAFDTKTGHRVAVKKLSRPFQSIIHAKRTYRELRLLKHMKHENVIGLLDVFTPARSLEEFNDVYLVTHLMGADLNNIVKCQKLTDDHVQFLIYQILRGLKYIHSADIIHRDLKPSNLAVNEDCELKILDFGLARHTDDEMTGYVATRWYRAPEIMANWMHYNQTVDIWSVGCIMAELLTGRTLFPGTDHIDQLKLILRLVGTPGAELLKKISSESARNYIQSLAQMPKMNFANVFIGANPLAVDLLEKMLVLDSDKRITAAQALAHAYFAQYHDPDDEPVAEPYDQSFESRDFLIDEWKSLTYDEVISFVPPPLDQEEMES

Variants of: B1

| Variant | screen value |
| --- | --- |
| chain 1 SQSKGKKRRPGLKIPKEAFEQP [chain 1 N9R] | 2.08 Z-score of the enrichment rate within one screen of 711 sequences |
| chain 1 SQSKGKKRIPGLKIPKEAFEQP [chain 1 N9I] | 0.56 Z-score of the enrichment rate within one screen of 711 sequences |
| chain 1 SQSKGKKRNPGLKAPAEAFEQP [chain 1 I14A, chain 1 K16A] | -0.243 Z-score of the enrichment rate within one screen of 711 sequences |
| chain 1 SQSKGKKRNPGQKIPKEAFEQP [chain 1 L12Q] | -1.19 Z-score of the enrichment rate within one screen of 711 sequences |
| chain 1 SQSKGKKRNPGPKIPKEAFEQP [chain 1 L12P] | -0.143 Z-score of the enrichment rate within one screen of 711 sequences |
| chain 1 SQSKGKARNPGLKIAKEAFEQP [chain 1 K7A, chain 1 P15A] | 0.766 Z-score of the enrichment rate within one screen of 711 sequences |
| chain 1 SQSKGAKRNPGLKIAKEAFEQP [chain 1 K6A, chain 1 P15A] | 1.01 Z-score of the enrichment rate within one screen of 711 sequences |
| chain 1 SQSKGKKRNPALAIPKEAFEQP [chain 1 G11A, chain 1 K13A] | -0.412 Z-score of the enrichment rate within one screen of 711 sequences |
| chain 1 SQSKGKKRNPAAKIPKEAFEQP [chain 1 G11A, chain 1 L12A] | -0.887 Z-score of the enrichment rate within one screen of 711 sequences |
| chain 1 SQAKAKKRNPGLKIPKEAFEQP [chain 1 S3A, chain 1 G5A] | 2.03 Z-score of the enrichment rate within one screen of 711 sequences |
| chain 1 SQSKGKKRNPGLQIPKEAFEQP [chain 1 K13Q] | -0.188 Z-score of the enrichment rate within one screen of 711 sequences |
| chain 1 SQSKGKKRNPGLMIPKEAFEQP [chain 1 K13M] | 0.213 Z-score of the enrichment rate within one screen of 711 sequences |
| chain 1 SQSAAKKRNPGLKIPKEAFEQP [chain 1 K4A, chain 1 G5A] | 0.605 Z-score of the enrichment rate within one screen of 711 sequences |
| chain 1 SQSKGKKRNNGLKIPKEAFEQP [chain 1 P10N] | 0.284 Z-score of the enrichment rate within one screen of 711 sequences |
| chain 1 SQSKGKKRNKGLKIPKEAFEQP [chain 1 P10K] | 0.591 Z-score of the enrichment rate within one screen of 711 sequences |
| chain 1 SQAKGKKANPGLKIPKEAFEQP [chain 1 S3A, chain 1 R8A] | -0.296 Z-score of the enrichment rate within one screen of 711 sequences |
| chain 1 SQSKGKKRNPGLKYPKEAFEQP [chain 1 I14Y] | -1.19 Z-score of the enrichment rate within one screen of 711 sequences |
| chain 1 SQSKGKKRNPGLKMPKEAFEQP [chain 1 I14M] | 0.51 Z-score of the enrichment rate within one screen of 711 sequences |
| chain 1 SQSKGKKRNPGLKCPKEAFEQP [chain 1 I14C] | -0.81 Z-score of the enrichment rate within one screen of 711 sequences |
| chain 1 SQSKGKKRNPGLKRPKEAFEQP [chain 1 I14R] | -1.31 Z-score of the enrichment rate within one screen of 711 sequences |
| chain 1 SQSKGKKRNPGAAIPKEAFEQP [chain 1 L12A, chain 1 K13A] | -1.08 Z-score of the enrichment rate within one screen of 711 sequences |
| chain 1 SQSKGMKRNPGLKIPKEAFEQP [chain 1 K6M] | 1.22 Z-score of the enrichment rate within one screen of 711 sequences |
| chain 1 SQSKGYKRNPGLKIPKEAFEQP [chain 1 K6Y] | 0.469 Z-score of the enrichment rate within one screen of 711 sequences |
| chain 1 SQSKAKKANPGLKIPKEAFEQP [chain 1 G5A, chain 1 R8A] | -0.162 Z-score of the enrichment rate within one screen of 711 sequences |

Second part, the variant after the results:

| screen value | Variant |
| --- | --- |
| 1.99 Z-score of the enrichment rate within one screen of 711 sequences | chain 1 SQSKGKKRWPGLKIPKEAFEQP [chain 1 N9W] |
| 1.1 Z-score of the enrichment rate within one screen of 711 sequences | chain 1 SQSKGKKRMPGLKIPKEAFEQP [chain 1 N9M] |
| 0.874 Z-score of the enrichment rate within one screen of 711 sequences | chain 1 SQSKGKKRQPGLKIPKEAFEQP [chain 1 N9Q] |
| -0.618 Z-score of the enrichment rate within one screen of 711 sequences | chain 1 SQSKGKKRNPGCKIPKEAFEQP [chain 1 L12C] |
| -0.0439 Z-score of the enrichment rate within one screen of 711 sequences | chain 1 SQSKGKKRNPGWKIPKEAFEQP [chain 1 L12W] |
| -1.09 Z-score of the enrichment rate within one screen of 711 sequences | chain 1 SQSKGKKRNPGYKIPKEAFEQP [chain 1 L12Y] |
| 0.386 Z-score of the enrichment rate within one screen of 711 sequences | chain 1 SQSAGKKRAPGLKIPKEAFEQP [chain 1 K4A, chain 1 N9A] |
| 0.565 Z-score of the enrichment rate within one screen of 711 sequences | chain 1 SQSAGKKRNPALKIPKEAFEQP [chain 1 K4A, chain 1 G11A] |
| 0.905 Z-score of the enrichment rate within one screen of 711 sequences | chain 1 SQSKAKKRNPGLKIPAEAFEQP [chain 1 G5A, chain 1 K16A] |
| 0.58 Z-score of the enrichment rate within one screen of 711 sequences | chain 1 SQSKGKKRNPILKIPKEAFEQP [chain 1 G11I] |
| 0.816 Z-score of the enrichment rate within one screen of 711 sequences | chain 1 SQSKGKKRNPWLKIPKEAFEQP [chain 1 G11W] |
| 1.22 Z-score of the enrichment rate within one screen of 711 sequences | chain 1 SQSKGKKRNPTLKIPKEAFEQP [chain 1 G11T] |
| 0.286 Z-score of the enrichment rate within one screen of 711 sequences | chain 1 SQSKGKKRNPELKIPKEAFEQP [chain 1 G11E] |
| -0.0639 Z-score of the enrichment rate within one screen of 711 sequences | chain 1 SQSKGKKRNPGLYIPKEAFEQP [chain 1 K13Y] |
| 0.802 Z-score of the enrichment rate within one screen of 711 sequences | chain 1 SQSKGKKRNIGLKIPKEAFEQP [chain 1 P10I] |
| 1.04 Z-score of the enrichment rate within one screen of 711 sequences | chain 1 SQSKGKKRNRGLKIPKEAFEQP [chain 1 P10R] |
| 0.417 Z-score of the enrichment rate within one screen of 711 sequences | chain 1 SQSKGKKRNQGLKIPKEAFEQP [chain 1 P10Q] |
| 1.57 Z-score of the enrichment rate within one screen of 711 sequences | chain 1 SQSKGKKRNHGLKIPKEAFEQP [chain 1 P10H] |
| -0.594 Z-score of the enrichment rate within one screen of 711 sequences | chain 1 SQSKGKKRNEGLKIPKEAFEQP [chain 1 P10E] |
| 0.57 Z-score of the enrichment rate within one screen of 711 sequences | chain 1 SQAKGAKRNPGLKIPKEAFEQP [chain 1 S3A, chain 1 K6A] |
| -0.342 Z-score of the enrichment rate within one screen of 711 sequences | chain 1 SQSAGAKRNPGLKIPKEAFEQP [chain 1 K4A, chain 1 K6A] |
| -0.353 Z-score of the enrichment rate within one screen of 711 sequences | chain 1 SQSKAKKRNPGAKIPKEAFEQP [chain 1 G5A, chain 1 L12A] |
| 0.831 Z-score of the enrichment rate within one screen of 711 sequences | chain 1 SQSKGCKRNPGLKIPKEAFEQP [chain 1 K6C] |
| 0.371 Z-score of the enrichment rate within one screen of 711 sequences | chain 1 SQSKGQKRNPGLKIPKEAFEQP [chain 1 K6Q] |
| 0.521 Z-score of the enrichment rate within one screen of 711 sequences | chain 1 SQSKGGKRNPGLKIPKEAFEQP [chain 1 K6G] |
| 0.936 Z-score of the enrichment rate within one screen of 711 sequences | chain 1 SQSKGWKRNPGLKIPKEAFEQP [chain 1 K6W] |
